Reference: patent US20130244255A1 (published 2013)

Tests used:
[1] = target: T1, GPNMB (CG56972) as expressed by human cell lines (human, UniProt Q14956 23-492); assay: FACS on SNB-78 cells, CR011 10 ug/mL
T1 construct: Endogenous or transfected full-length protein on cells (FACS, killing assays) or in cell lysates (immunoprecipitation, blot); also called native GPNMB protein
T1 sequence: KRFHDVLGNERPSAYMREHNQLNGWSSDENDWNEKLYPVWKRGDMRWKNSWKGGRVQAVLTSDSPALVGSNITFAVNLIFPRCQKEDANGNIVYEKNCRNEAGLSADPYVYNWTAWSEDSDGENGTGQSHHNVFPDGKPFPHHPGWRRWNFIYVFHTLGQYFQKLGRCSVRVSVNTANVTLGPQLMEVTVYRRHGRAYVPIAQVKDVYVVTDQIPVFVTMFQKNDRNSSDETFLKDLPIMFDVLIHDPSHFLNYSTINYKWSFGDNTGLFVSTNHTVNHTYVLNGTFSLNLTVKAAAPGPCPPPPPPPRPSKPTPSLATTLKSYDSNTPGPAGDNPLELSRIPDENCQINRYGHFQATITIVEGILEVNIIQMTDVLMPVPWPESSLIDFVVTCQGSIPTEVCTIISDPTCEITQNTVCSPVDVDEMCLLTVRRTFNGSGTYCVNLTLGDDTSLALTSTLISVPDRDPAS
Protocol: (§1) Quantitative analysis of CG56972 expression on the surface of cell lines was determined by flow cytometry (FACS). […] Cells were fixed in 1% paraformaldehyde/PBS and examined on a Becton Dickinson FACSCalibur flow cytometer. Data analysis was performed with Becton Dickinson Cell Quest software version 3.3 and the geometric mean fluorescence intensity ratio (GMR) was determined for each cell type.

[2] = target: T1, GPNMB (CG56972) as expressed by human …; assay: FACS on SF-539 cells, CR011 10 ug/mL
Protocol: as §1
Geometric Mean ratios (GMR) were determined by flow cytometric analysis.

[3] = target: T1, GPNMB (CG56972) as expressed by human …; assay: FACS on SK-Mel 5 cells
[4] = target: T1, GPNMB (CG56972) as expressed by human …; assay: FACS on HL-60 cells, antibody 1 ug/mL
[5] = target: T1, GPNMB (CG56972) as expressed by human …; assay: FACS on D392-MG cells, CR011 10 ug/mL
Protocol: as §1

[6] = target: T1, GPNMB (CG56972) as expressed by human …; assay: FACS on HH cells, antibody 1 ug/mL
[7] = target: T1, GPNMB (CG56972) as expressed by human …; assay: FACS on ML-2 cells, antibody 1 ug/mL
Protocol: (§2) Lymphoma or leukemia derived cells were washed twice with ice-cold FACS buffer and resuspended at 1 million cells per assay tube. […] Cells were then washed 2-3 times and resuspended in 1 mL of ice-cold FACS buffer. R-PE-conjugated goat anti-human antibody at 1:100 dilution was added and cells were incubated on ice for 30 min. Cells were washed 3 times with 1 mL of ice-cold FACS buffer, fixed with 0.5-1 mL of 1% formaldehyde in PBS and analyzed by Flow Cytometry.

[8] = target: T1, GPNMB (CG56972) as expressed by human …; assay: FACS on M14 cells
[9] = target: T1, GPNMB (CG56972) as expressed by human …; assay: FACS on MOLT-4 cells, antibody 1 ug/mL
Protocol: as §2

B1: CR011 mAb 1.15.1 (IgG2) (antibody)
heavy: QVQLQESGPGLVKPSQTLSLTCTVSGGSISSFNYYWSWIRHHPGKGLEWIGYIYYSGSTYSNPSLKSRVTISVDTSKNQFSLTLSSVTAADTAVYYCARGYNWNYFDYWGQGTLVTVSSASTKGPSVFPLAPCSRSTSESTAALGCLVKDYFPEPVTVSWNSGALTSGVHTFPAVLQSSGLYSLSSVVTVPSSNFGTQTYTCNVDHKPSNTKVDKTVERKCCVECPPCPAPPVAGPSVFLFPPKPKDTLMISRTPEVTCVVVDVSHEDPEVQFNWYVDGVEVHNAKTKPREEQFNSTFRVVSVLTVVHQDWLNGKEYKCKVSNKGLPAPIEKTISKTKGQPREPQVYTLPPSREEMTKNQVSLTCLVKGFYPSDIAVEWESNGQPENNYKTTPPMLDSDGSFFLYSKLTVDKSRWQQGNVFSCSVMHEALHNHYTQKSLSLSPGK
VL: not shown
notes: also called CR011.1.15.1; CR011 IgG2
In the case of B1, the “CR011 Fold Shift (GMR)” value [1] is reported as 8.6 fold, the “CR011 Fold Shift (GMR)” value [2] is reported as 5.4 fold and the “Geo Mean Ratio (relative to isotype)” value [3] is reported as 5.7 ratio. For the same binder, the “Geo Mean Ratio” value [4] was 2.3 ratio, the “CR011 Fold Shift (GMR)” value [5] was 3.1 fold and the “Geo Mean Ratio” value [6] was 1 ratio. For the same binder, the “Geo Mean Ratio” value [7] was 2.1 ratio, the “Geo Mean Ratio (relative to isotype)” value [8] was 16.1 ratio and the “Geo Mean Ratio” value [9] was 6.2 ratio.
